± gives the standard deviation of the averaged measurements.
B1: library; a variant is named by its letters at N, in order (parent)
chain: GCUGUCACCGGUGUAUUACCCUAGUGGUCGACCGGUCUGAUGAGUCUNNNNNNAGACGAAACAGC

What was measured:
hypoxanthine [1] = variants of: B1; experiment: normalized RNA/DNA level with ligand (relative to sTRSVctl = 100) (log10 (% of sTRSVctl)); ligand: hypoxanthine (xanthine aptamer); higher = less ribozyme self-cleavage, higher mRNA level; conditions: ligand concentration (+) RNA-Seq: 5 mM, HEK293T, reporter: mCherry (pCS4076), ligand present: yes
Outline: (§1)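 Only sequences with at least 100 DNA reads were analyzed, from HEK293T cells transfected with 4 µg per 6-well well of ribozyme switch library plasmids 72 h before RNA extraction with EDTA. Any ligand was added 1 h before transfection. RNA level was defined as RNA over DNA reads, normalized to a spiked-in non-cleaving sequence or to the top sequences, then scaled and log-transformed. The top set was 25 sequences, and the scaling was ×100 followed by log10.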

hypoxanthine [2] = variants of: B1; experiment: normalized RNA/DNA level without ligand (relative to sTRSVctl = 100) (log10 (% of sTRSVctl)); ligand: hypoxanthine (xanthine aptamer); higher = less ribozyme self-cleavage, higher mRNA level; conditions: HEK293T, reporter: mCherry (pCS4076), ligand present: no
Outline: as §1

Variant	normalized RNA/DNA level with ligand (log10) (hypoxanthine [1])	normalized RNA/DNA level without ligand (log10) (hypoxanthine [2])
UAUGAG	1.86 ± 0.046	1.54 ± 0.046
UAUGAU	1.91 ± 0.022	1.7488 ± 0.0016
CAUUUU	1.973 ± 0.0049	1.804 ± 0.0085
CAUUUG	1.98 ± 0.1	1.9 ± 0.049
ACAUCC	1.98 ± 0.049	1.931 ± 0.0044
ACAUCU	1.97 ± 0.024	1.87 ± 0.073
ACAUCA	1.96 ± 0.046	1.91 ± 0.029
UCAUAU	1.88 ± 0.029	1.77 ± 0.041
UAUGUA	1.906 ± 0.0084	1.837 ± 0.0025
UAUGUU	1.94 ± 0.06	1.85 ± 0.049
GCAACC	1.93 ± 0.052	1.82 ± 0.03
GCAACG	1.9 ± 0.031	1.595 ± 0.0074
GCAACU	1.97 ± 0.042	1.96 ± 0.028
AAUUAU	1.92 ± 0.026	1.82 ± 0.022
UAUCUU	1.97 ± 0.044	1.9 ± 0.043
UAUCUC	2 ± 0.021	1.99 ± 0.031
UAUCUG	1.904 ± 0.0025	1.708 ± 0.0037
GCCAAC	1.927 ± 0.014	1.74 ± 0.039
CCAGCG	1.917 ± 0.0021	1.82 ± 0.038
CCAGCA	1.966 ± 0.019	1.87 ± 0.043
CCAGCU	1.99 ± 0.097	1.94 ± 0.045
GCAAGC	1.89 ± 0.074	1.575 ± 0.0013
GCAAGG	1.84 ± 0.04	1.35 ± 0.032
GCAAGU	1.93 ± 0.036	1.69 ± 0.043

Variant	normalized RNA/DNA level with ligand (log10) (hypoxanthine [1])	normalized RNA/DNA level without ligand (log10) (hypoxanthine [2])
ACAGCA	1.94 ± 0.032	1.81 ± 0.028
ACAGCU	1.92 ± 0.027	1.87 ± 0.033
ACAGCC	1.97 ± 0.021	1.919 ± 0.01
GAUCUG	1.92 ± 0.051	1.58 ± 0.039
GAUCUU	1.96 ± 0.028	1.943 ± 0.0084
AAUUUC	1.91 ± 0.0075	1.926 ± 0.0082
AAUUUU	1.946 ± 0.013	1.886 ± 0.0096
AAUUUA	1.93 ± 0.047	1.828 ± 0.0075
CCAGGC	1.97 ± 0.041	1.86 ± 0.061
CCAGGG	1.89 ± 0.11	1.37 ± 0.044
CCAGGA	1.97 ± 0.033	1.83 ± 0.022
CCAGGU	1.99 ± 0.067	1.833 ± 0.0077
ACAUAC	1.94 ± 0.034	1.823 ± 0.015
ACAUAU	1.89 ± 0.072	1.6935 ± 0.0011
ACACAC	1.92 ± 0.023	1.74 ± 0.022
ACACAG	1.84 ± 0.023	1.42 ± 0.054
ACACAU	1.92 ± 0.03	1.723 ± 0.0032
ACACAA	1.92 ± 0.065	1.78 ± 0.028
CAUGCA	1.979 ± 0.013	1.688 ± 0.016
CAUGCC	1.92 ± 0.1	1.84 ± 0.028
UCACGU	1.92 ± 0.042	1.78 ± 0.062
UCACGA	1.923 ± 0.011	1.8 ± 0.043
UCACGC	1.94 ± 0.033	1.78 ± 0.13
UCACGG	1.91 ± 0.043	1.79 ± 0.051

Variant	normalized RNA/DNA level with ligand (log10) (hypoxanthine [1])	normalized RNA/DNA level without ligand (log10) (hypoxanthine [2])
ACCAAG	1.89 ± 0.088	1.5 ± 0.098
CCCAAU	1.93 ± 0.026	1.83 ± 0.04
CCCAAC	1.96 ± 0.072	1.87 ± 0.023
GAUUCA	1.961 ± 0.017	1.86 ± 0.041
GAUUCC	1.976 ± 0.0082	1.92 ± 0.034
GAUUCU	1.97 ± 0.065	1.92 ± 0.042
GCAUGU	1.9 ± 0.03	1.68 ± 0.043
GCAUGA	1.94 ± 0.042	1.71 ± 0.029
CCAGUC	1.99 ± 0.038	1.974 ± 0.0045
CCAGUA	1.94 ± 0.054	1.85 ± 0.038
CCAGUU	2.01 ± 0.029	1.928 ± 0.0095
CCAGUG	1.93 ± 0.051	1.69 ± 0.077
GAUGCA	1.97 ± 0.036	1.83 ± 0.02
UCAUGU	1.92 ± 0.038	1.628 ± 0.0081
UCAUGG	1.9 ± 0.034	1.69 ± 0.049
UCAUGC	1.95 ± 0.0044	1.882 ± 0.014
CCACCG	1.99 ± 0.028	1.84 ± 0.2
CCACCU	2.033 ± 0.0077	1.93 ± 0.053
CCACCA	1.97 ± 0.026	1.88 ± 0.046
UCAAGG	1.936 ± 0.0091	1.79 ± 0.026
UCAAGC	1.964 ± 0.019	1.87 ± 0.053
UAUUAG	1.873 ± 0.0072	1.6759 ± 0.00016
UCACUC	1.99 ± 0.02	2.03 ± 0.026
UCACUA	1.92 ± 0.051	1.83 ± 0.088

Variant	normalized RNA/DNA level with ligand (log10) (hypoxanthine [1])	normalized RNA/DNA level without ligand (log10) (hypoxanthine [2])
UCACUU	1.93 ± 0.043	1.88 ± 0.025
GAUUUC	1.972 ± 0.018	1.907 ± 0.012
GAUUUU	1.947 ± 0.0067	1.908 ± 0.0016
CAUUAG	1.941 ± 0.019	1.73 ± 0.054
CAUUAC	1.9 ± 0.046	1.82 ± 0.0041
UCAAUU	1.96 ± 0.0097	1.89 ± 0.023
UCAAUG	1.85 ± 0.035	1.702 ± 0.0043
UCAAUA	1.91 ± 0.049	1.76 ± 0.021
CCACGA	1.95 ± 0.089	1.881 ± 0.0042
CCACGU	1.93 ± 0.069	1.827 ± 0.0023
CCACGG	1.91 ± 0.028	1.85 ± 0.025
CCACGC	2.01 ± 0.015	1.864 ± 0.0022
AAUUCC	1.98 ± 0.039	1.9 ± 0.027
AAUUCU	1.9751 ± 0.00092	1.855 ± 0.0071
GCAUUA	1.92 ± 0.023	1.877 ± 0.01
GCAUUC	2 ± 0.023	1.81 ± 0.047
GCAUUU	1.922 ± 0.019	1.88 ± 0.042
ACAGUA	1.908 ± 0.015	1.76 ± 0.029
ACAGUG	1.85 ± 0.039	1.35 ± 0.021
UCAGCC	2.04 ± 0.02	1.997 ± 0.0026
UCAGCA	1.99 ± 0.021	1.88 ± 0.03
UCAGCU	1.99 ± 0.03	1.948 ± 0.014
ACAACC	1.91 ± 0.04	1.91 ± 0.013
ACAACA	1.92 ± 0.028	1.85 ± 0.022

Variant	normalized RNA/DNA level with ligand (log10) (hypoxanthine [1])	normalized RNA/DNA level without ligand (log10) (hypoxanthine [2])
ACAACU	1.885 ± 0.018	1.83 ± 0.037
ACAACG	1.89 ± 0.047	1.49 ± 0.021
UCAUUC	2.0015 ± 0.00059	1.9887 ± 0.00019
UCAUUG	1.91 ± 0.026	1.72 ± 0.043
UCAUUA	1.927 ± 0.0081	1.884 ± 0.0033
AAUGUC	1.98 ± 0.064	1.921 ± 0.0048
GCAAAA	1.928 ± 0.015	1.79 ± 0.025
GCAAAG	1.894 ± 0.0041	1.501 ± 0.0085
AAUGAA	1.872 ± 0.0038	1.71 ± 0.018
CCAGAU	1.9387 ± 0.00089	1.8 ± 0.057
CCAGAC	1.954 ± 0.0047	1.877 ± 0.011
UCAGGC	1.96 ± 0.073	1.96 ± 0.03
UCAGGU	1.87 ± 0.052	1.654 ± 0.0062
ACAGAA	1.922 ± 0.012	1.7472 ± 0.0012
ACAGAC	1.92 ± 0.078	1.838 ± 0.0042
AAUGGC	1.929 ± 0.0094	1.79 ± 0.02
AAUGGU	1.925 ± 0.016	1.592 ± 0.0071
UCACCC	1.97 ± 0.026	1.89 ± 0.029
GCAGCU	2.014 ± 0.019	1.95 ± 0.038
GCAGCG	1.97 ± 0.028	1.62 ± 0.042

From the supplement of paper PMC6757056
